Data taken from the supplement of paper PMC11246515.
± gives the standard deviation of the averaged measurements.

Test: total protein half-life in vivo (active degradation + dilution); higher = more stable protein
[1] = E. coli NCM3722 delta-clpP delta-lon delta-hslV, growth: N-lim chemostat, doubling time 6 h
[2] = E. coli NCM3722 delta-clpP, growth: N-lim chemostat, doubling time 6 h
[3] = E. coli NCM3722 delta-hslV, growth: N-lim chemostat, doubling time 6 h
[4] = E. coli NCM3722 delta-lon, growth: N-lim chemostat, doubling time 6 h
[5] = E. coli NCM3722 delta-smpB, growth: N-lim chemostat, doubling time 6 h
[6] = wild type E. coli NCM3722, growth: C-lim chemostat, doubling time 6 h
[7] = wild type E. coli NCM3722, growth: C-lim chemostat, doubling time 12 h
[8] = wild type E. coli NCM3722, growth: N-lim chemostat, doubling time 6 h
[9] = wild type E. coli NCM3722, growth: N-lim chemostat, doubling time 12 h
[10] = wild type E. coli NCM3722, growth: P-lim chemostat, doubling time 6 h
[11] = wild type E. coli NCM3722, growth: C-lim chemostat, doubling time 3 h
[12] = wild type E. coli NCM3722, growth: P-lim chemostat, doubling time 12 h

Sequence	total protein half-life in vivo [1] [h]	total protein half-life in vivo [2] [h]	total protein half-life in vivo [3] [h]	total protein half-life in vivo [4] [h]	total protein half-life in vivo [5] [h]	total protein half-life in vivo [6] [h]	total protein half-life in vivo [7] [h]	total protein half-life in vivo [8] [h]	total protein half-life in vivo [9] [h]	total protein half-life in vivo [10] [h]	total protein half-life in vivo [11] [h]	total protein half-life in vivo [12] [h]
MADYQGKNVVIIGLGLTGLSCVDFFLARGVTPRVMDTRMTPPGLDKLPEAVERHTGSLNDEWLMAADLIVASPGIALAHPSLSAAADAGIEIVGDIELFCREAQAPIVAITGSNGKSTVTTLVGEMAKAAGVNVGVGGNIGLPALMLLDDECELYVLELSSFQLETTSSLQAVAATILNVTEDHMDRYPFGLQQYRAAKLRIYENAKVCVVNADDALTMPIRGADERCVSFGVNMGDYHLNHQQGETWLRVKGEKVLNVKEMKLSGQHNYTNALAALALADAAGLPRASSLKALTTFTGLPHRFEVVLEHNGVRWINDSKATNVGSTEAALNGLHVDGTLHLLLGGDGKSADFSPLARYLNGDNVRLYCFGRDGAQLAALRPEVAEQTETMEQAMRLLAPRVQPGDMVLLSPACASLDQFKNFEQRGNEFARLAKELG	5.112 ± 0.021	4.445 ± 0.041	4.9241 ± 0.00076	5.5 ± 0.35	4.73 ± 0.097	5.38 ± 0.69	12.18 ± 0.043	4.57 ± 0.075	9.03 ± 0.63	5.815 ± 0.041		
MAEGKAMSEFLPFSRPAMGVEELAAVKEVLESGWITTGPKNQALEQAFCQLTGNQHAIAVSSATAGMHITLMALKIGKGDEVITPSLTWVSTLNMISLLGATPVMVDVDRDTLMVTPEAIESAITPRTKAIIPVHYAGAPADIDAIRAIGERYGIAVIEDAAHAVGTYYKGRHIGAKGTAIFSFHAIKNITCAEGGLIVTDNENLARQLRMLKFHGLGVDAYDRQTWGRAPQAEVLTPGYKYNLTDINAAIALTQLVKLEHLNTRRREIAQQYQQALAALPFQPLSLPAWPHVHAWHLFIIRVDEQRCGISRDALMEALKERGIGTGLHFRAAHTQKYYRERFPTLSLPNTEWNSERICSLPLFPDMTTADADHVITALQQLAGQ	4.86 ± 0.74	3.7 ± 0.29	3.72 ± 0.19	4.52 ± 0.06	3.93 ± 0.41	4.78 ± 0.6	9.35 ± 0.95	3.78 ± 0.055	6.38 ± 0.47	5.53 ± 0.55	3.52 ± 0.55	11.7 ± 0.21
MAEHLMSDVPFWQSKTLDEMSDAEWESLCDGCGQCCLHKLMDEDTDEIYFTNVACRQLNIKTCQCRNYERRFEFEPDCIKLTRENLPTFEWLPMTCAYRLLAEGKDLPAWHPLLTGSKAAMHGERISVRHIAVKESEVIDWQDHILNKPDWAQ [P0A8L5]	3.88 ± 0.37					1.17						1.97
MAENQSTVENAKEKLDRWLKDGITTPGGKLPSERELGELLGIKRMTLRQALLNLEAESKIFRKDRKGWFVTQPRFNYSPELSASFQRAAIEQGREPSWGFTEKNRTSDIPETLAPLIAVTPSTELYRITGWGALEGHKVFYHETYINPEVAPGFIEQLENHSFSAVWEKCYQKETVVKKLIFKPVRMPGDISKYLGGSAGMPAILIEKHRADQQGNIVQIDIEYWRFEAVDLIINL [P0ACM9]	6.16 ± 0.15	5.99 ± 0.32	5.13 ± 0.17		4.95		13.2 ± 3.2	5.84 ± 0.19	9.06 ± 1	5.01 ± 1.8		9.28
MAEVTQLKRYDARPINWGKWFLIGIGMLVSAFILLVPMIYIFVQAFSKGLMPVLQNLADPDMLHAIWLTVMIALIAVPVNLVFGILLAWLVTRFNFPGRQLLLTLLDIPFAVSPVVAGLVYLLFYGSNGPLGGWLDEHNLQIMFSWPGMVLVTIFVTCPFVVRELVPVMLSQGSQEDEAAILLGASGWQMFRRVTLPNIRWALLYGVVLTNARAIGEFGAVSVVSGSIRGETLSLPLQIELLEQDYNTVGSFTAAALLTLMAIITLFLKSMLQWRLENQEKRAQQEEHHEH [P0AEB0]	4.83	5.5	4.23		4.22	4.97 ± 1.4		4.59	4.73	4.26	2.64	10.7 ± 2
MAFKIWQIGLHLQQQEAVAVAIVRGAKECFLQRWWRLPLENDIIKDGRIVDAQQLAKTLLPWSRELPQRHHIMLAFPASRTLQRSFPRPSMSLGEREQTAWLSGTMARELDMDPDSLRFDYSEDSLSPAYNVTAAQSKELATLLTLAERLRVHVSAITPDASALQRFLPFLPSHQQCLAWRDNEQWLWATRYSWGRKLAVGMTSAKELAAALSVDPESVAICGEGGFDPWEAVSVRQPPLPPPGGDFAIALGLALGKAY	4.83	3.81	2.84		2.82 ± 0.24		11.7 ± 1.8			3.857 ± 0.0092		8.02
MAFQVKIHQIRAFVEVARQGSIRGASRMLNMSQPALSKSIQELEEGLAAQLFFRRSKGVTLTDAGESFYQHASLILEELRAAQEDIRQRQGQLAGQINIGMGASISRSLMPAVISRFHQQHPQVKVRIMEGQLVSMINELRQGELDFTINTYYQGPYDHEFTFEKLLEKQFAIFCRPGHPAIGARSIKQLLDYSWTMPTPHGSYYKQLSELLDDQAQTPQVGVVCETFSACISLVAKSDFLSKLPEEMGCDPLHGQGLVMLPVSEILPKAAYYLIQRRDSRQTPLTASLITQFRRECGYLQS				2.39 ± 0.088				0.867	0.857			
MAFVSEREIVRKIFSKKIDFTILAFFYISSIFFLLCSGVLFQYFTAAFTKGNCYECSMKLDYIKQFYFSLETAWYLISAVAVFIASVFIQHRIKAYLTLLAITWIVLTITDVALIHALDNIAMNNILLNILYNLFGAILLSLFMCLSNSLLFHLNKIKHIPMILSAMIPLVSAIIIAILITAVIYLLFARQAVEIEMDISEGSDIAYVGVKDNEESFGFLNDKKTDTPTYLDVIKNGSLIYNDTQGLSGADIYIVSGCYALPDLLRNVPLDAKKSFLNVKKLEITQKLPMMGFIQGESADVMPKAASRLSLSKQDDKFMLASSVTDSQIKFKSNNAQLMVAFAFMPITTNGILHDYTYDIIINDKKYKIENHVAPLSRLDKNKKMKCEYQQISDLTNTYNINANYLTGFLLVLKPDDIINYNNSPSVLLKTDFAFYKKTYQKLDKIYDDISNGKLSSLRATGISQFSINGKHLSLRPESEIIISEGSLYGLVNKSKKIKIYGTADLVFVDNKIMNLRKITYLQSKLEIFGSSIMDILKYIFGLGLLAISIKFIHSYFKNDVNENLFL								2.06				2.3 ± 0.71
MAGINLNKKLWRIPQQGMVRGVCAGIANYFDVPVKLVRILVVLSIFFGLALFTLVAYIILSFALDPMPDNMAFGEQLPSSSELLDEVDRELAASETRLREMERYVTSDTFTLRSRFRQL [P0AFN2]	5.469 ± 0.044	> 8	5.48 ± 0.47		4.53 ± 0.38	3.81 ± 0.91	6.7 ± 3.6	4.862 ± 0.037	9.24 ± 0.17	7.55	2.498 ± 0.015	10 ± 0.79
MAGLKLQAVTKSWDGKTQVIKPLTLDVADGEFIVMVGPSGCGKSTLLRMVAGLERVTEGDIWINDQRVTEMEPKDRGIAMVFQNYALYPHMSVEENMAWGLKIRGMGKQQIAERVKEAARILELDGLLKRRPRELSGGQRQRVAMGRAIVRDPAVFLFDEPLSNLDAKLRVQMRLELQQLHRRLKTTSLYVTHDQVEAMTLAQRVMVMNGGVAEQIGTPVEVYEKPASLFVASFIGSPAMNLLTGRVNNEGTHFELDGGIELPLNGGYRQYAGRKMTLGIRPEHIALSSQAEGGVPMVMDTLEILGADNLAHGRWGEQKLVVRLAHQERPTAGSTLWLHLAENQLHLFDGETGQRV	6.33 ± 0.31	6 ± 0.91	5.83 ± 0.11	4.99 ± 0.61	5.45 ± 0.75	5.54 ± 0.4	12 ± 0.92	5.14 ± 0.41		6.25 ± 0.35	3.13 ± 0.15	13.2 ± 0.23
